Reference: publication PMC13078783 (2026)

Legend:
KLC2 TPR domain = assay: FP
KLC1 TPR domain = assay: FP
Sequence of KLC1 TPR domain (chain, as listed by the source): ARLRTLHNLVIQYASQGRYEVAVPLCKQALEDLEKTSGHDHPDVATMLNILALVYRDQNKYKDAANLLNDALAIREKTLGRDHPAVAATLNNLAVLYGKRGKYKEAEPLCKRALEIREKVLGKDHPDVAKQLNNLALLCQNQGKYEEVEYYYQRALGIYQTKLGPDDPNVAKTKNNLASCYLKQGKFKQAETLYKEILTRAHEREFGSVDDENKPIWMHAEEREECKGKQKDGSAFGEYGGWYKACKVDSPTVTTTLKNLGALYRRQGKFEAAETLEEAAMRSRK

Sequence of KLC2 TPR domain (chain, as listed by the source): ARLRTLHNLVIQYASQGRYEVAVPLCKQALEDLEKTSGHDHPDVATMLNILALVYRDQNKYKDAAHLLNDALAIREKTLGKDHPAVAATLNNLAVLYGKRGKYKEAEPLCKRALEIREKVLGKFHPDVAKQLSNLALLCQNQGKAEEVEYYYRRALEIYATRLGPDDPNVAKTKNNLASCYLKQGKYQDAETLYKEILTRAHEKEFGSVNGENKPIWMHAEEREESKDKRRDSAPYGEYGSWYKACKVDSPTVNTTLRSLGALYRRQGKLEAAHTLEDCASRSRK

Question: How did the Kd (KLC2 TPR domain) turn out when {TAMRA}-STNLEWDDSAI-NH2 [SKIP W-acidic motif peptide] was run?
Answer: 750 nM

Question: And the Kd (KLC1 TPR domain)?
Answer: 830 nM
